This is an account of results in patent US6759384 (AVENTIS PHARMACEUTICALS, dated 2004).

Experiment [1] deals with T1, human factor Xa (Enzyme Research Laboratories, Inc.) (human, UniProt P00742 41-179; P00742 235-488, limits assumed). The experiment in a line: chromogenic FXa inhibition. In a few lines:
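Human FXa (0.5 nM) preincubated 10 min with inhibitor in TBS-P (pH 7.8, 200 mM NaCl, PEG-8000), then S-2765 added (140 μM). Initial hydrolysis rate read at 405 nm, 25° C.; IC50 by linear regression of relative rate vs log concentration.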

Experiment [2] concerns the target T1, human factor Xa (Enzyme Research …). The experiment in a line: chromogenic enzyme inhibition, IC50 corrected for substrate.
The target is the same in experiment [3]. The experiment in a line: chromogenic FXa inhibition. How it is done:
TBS-P buffer (50 mM Tris-Cl, pH 7.8, 200 mM NaCl, 0.05% (w/v) PEG-8000, 0.02% (w/v) NaN_3) was used for this assay. The IC$50$ was determined by combining in appropriate wells of a Costar half-area microtiter plate 25 μl human factor Xa (Enzyme Research Laboratories, Inc.; South Bend Ind.) in TBS-P; 40 μl 10% (v/v) DMSO in TBS-P (uninhibited control) or various concentrations of a peptide to be tested diluted in 10% (v/v) DMSO in TBS-P; and substrate S-2765 (Nα-benzyloxycarbonyl-D-Arg-Gly-L-Arg-p-nitroanilide; Kabi Pharmacia, Inc.; Franklin Ohio) in TBS-P.
The assays were performed by pre-incubating the peptide inhibitor plus enzyme for 10 min, then the assay was initiated by adding substrate to obtain a final volume of 100 μl. The initial velocity of chromogenic substrate hydrolysis was measured by the change in absorbance at 405 nm using a Bio-tek Instruments kinetic plate reader (Ceres UV900HDi) at 25° C. during the linear portion of the time course (usually 1–5 min after addition of substrate). The concentration of inhibitor that caused a 50% decrease in the rate of substrate hydrolysis was predicted by linear regression after plotting the relative rates of hydrolysis (compared to the uninhibited control) versus the log of the peptide concentration. The enzyme concentration was 0.5 nM and substrate concentration was 140 μM.
The source holds these as a separate data set.

Experiment [4] has as its target human thrombin (Enzyme Research Laboratories, Inc.) (human, UniProt P00734 328-622). The experiment in a line: chromogenic enzyme inhibition, IC50 corrected for substrate.

A value given as a limit tells only on which side of the number the result lay.

T1 sequence (P00742 41-179 limits assumed, chain 1 of 2): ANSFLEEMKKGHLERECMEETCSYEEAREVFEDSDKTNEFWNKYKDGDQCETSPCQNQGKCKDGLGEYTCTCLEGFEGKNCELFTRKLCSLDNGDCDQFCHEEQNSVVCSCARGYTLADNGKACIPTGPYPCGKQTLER
T1 sequence (P00742 235-488 limits assumed, chain 2 of 2): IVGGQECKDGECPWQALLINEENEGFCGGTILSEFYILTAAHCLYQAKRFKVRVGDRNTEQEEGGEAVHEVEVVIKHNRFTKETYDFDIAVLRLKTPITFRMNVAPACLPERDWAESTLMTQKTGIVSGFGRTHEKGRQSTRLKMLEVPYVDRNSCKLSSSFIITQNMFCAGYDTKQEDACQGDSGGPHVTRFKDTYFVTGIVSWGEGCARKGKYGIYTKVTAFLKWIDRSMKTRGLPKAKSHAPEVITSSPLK

As a reminder, the Ki is a dissociation constant, usually derived from enzyme kinetics or from competition with a known ligand. The low end stands for a stronger hold on the target, the high end for a looser hold on the target. Take YIRLP (D-Tyr at 1; C-term NH2, also called (D)-Tyr-Ile-Arg-Leu-Pro-NH2) [y-I-R-L-P-NH2]: the results for the Ki in experiment [1] and in experiment [2] were less than 100000 nM and 200 nM, respectively.
Regarding XIRLP (N-(iBu) on Y1; C-term NH2) [(iBu)Y-I-R-L-P-NH2], the Ki in experiment [3] was 2600 nM; in experiment [1], less than 100000 nM.
As to XIRLP (N-term Ac; N-(iBu) on Y1; C-term NH2) [Ac-(iBu)Y-I-R-L-P-NH2], the figures for the Ki in experiment [1], in experiment [2] and in experiment [4] were less than 100000 nM, 40 nM and 25000 nM, respectively.
